Consider two molecules from patent US20080233589A1 (WASHINGTON UNIVERSITY IN ST LOUIS, published 2008).

The target in assay [1] is T1, human FKBP-12 fused through a flexible Gly/Ser linker to a C-terminal luciferase fragment (human, UniProt P62942 2-108).
T1 construct: Stands for the set of CLuc-FKBP fusions (GC, RC, FC) expressed in HEK293T cells; also called CLuc-FKBP; not shown: C-terminal luciferase fragment; differs between the pairs pooled in the result (click beetle green or red residues 395-5); flexible Gly/Ser linker with multiple cloning site
T1 sequence (P62942 2-108): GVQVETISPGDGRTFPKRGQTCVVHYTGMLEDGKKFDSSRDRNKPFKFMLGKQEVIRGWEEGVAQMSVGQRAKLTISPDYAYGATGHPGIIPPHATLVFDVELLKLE
Kind of assay: split luciferase complementation in live HEK293T cells, rapamycin titrated for 8 h; all productive click beetle green or red fragment pairs (apparent Kd on the rapamycin concentration).

Assay [2] addresses T1, human FKBP-12 fused through a flexible …. Kind of assay: cell-based or functional assay.
Assay [3] shares this target. Kind of assay: split luciferase complementation in HEK293T cells, fold induction by rapamycin (FIG. 7).

B1: FRB domain of human mTOR (residues 2024-2113) fused through a flexible Gly/Ser linker to an N-terminal luciferase fragment (other)
chain: HEMWHEGLEEASRLYFGERNVKGMFEVLEPLHAMMERGPQTLKETSFNQAYGRDLMEAQEWCRKYMKSGNVKDLTQAWDLYYHVFRRISK
notes: range 2024-2113; Stands for the set of FRB-NLuc fusions (GN, RN, FN) expressed in HEK293T cells; also called FRP; FRB-NLuc; not shown: flexible Gly/Ser linker with multiple cloning site; N-terminal luciferase fragment; differs between the pairs pooled in the result (click beetle green or red residues 2-413)
For B1, the Kd in assay [1] worked out at 0.25 nM. For the same molecule, the “Ki for FK506 inhibition of rapamycin-induced FRB and FKBP binding (luciferase complementation, 10 nM rapamycin)” value in assay [2] came to 1.57 nM.

B2: FRB mutant S2035I fused to an N-terminal luciferase fragment (other)
chain: HEMWHEGLEEAIRLYFGERNVKGMFEVLEPLHAMMERGPQTLKETSFNQAYGRDLMEAQEWCRKYMKSGNVKDLTQAWDLYYHVFRRISK
notes: range 2024-2113; also called ΔF; mutant S20351 FRB; not shown: flexible Gly/Ser linker with multiple cloning site; N-terminal luciferase fragment of the 'native split luciferase pairs'
Regarding B2, in assay [3], the binding result is on record as “no binding”.
